Target: T1, chimeric LIF receptor (human LIF receptor and human gp130 / mouse G-CSF receptor) in Ba/F3 cell line LIG (Homo sapiens, UniProt P40189+P42702)
T1 construct: from the 1st to the 833rd amino acid residues; expressed in transfected cells; host or cells: mouse Ba/F3 cells co-transfected with pCV-cLIFR and pCV-cgp130, clone LIG#47 = LIG
T1 sequence (P42702 45-833): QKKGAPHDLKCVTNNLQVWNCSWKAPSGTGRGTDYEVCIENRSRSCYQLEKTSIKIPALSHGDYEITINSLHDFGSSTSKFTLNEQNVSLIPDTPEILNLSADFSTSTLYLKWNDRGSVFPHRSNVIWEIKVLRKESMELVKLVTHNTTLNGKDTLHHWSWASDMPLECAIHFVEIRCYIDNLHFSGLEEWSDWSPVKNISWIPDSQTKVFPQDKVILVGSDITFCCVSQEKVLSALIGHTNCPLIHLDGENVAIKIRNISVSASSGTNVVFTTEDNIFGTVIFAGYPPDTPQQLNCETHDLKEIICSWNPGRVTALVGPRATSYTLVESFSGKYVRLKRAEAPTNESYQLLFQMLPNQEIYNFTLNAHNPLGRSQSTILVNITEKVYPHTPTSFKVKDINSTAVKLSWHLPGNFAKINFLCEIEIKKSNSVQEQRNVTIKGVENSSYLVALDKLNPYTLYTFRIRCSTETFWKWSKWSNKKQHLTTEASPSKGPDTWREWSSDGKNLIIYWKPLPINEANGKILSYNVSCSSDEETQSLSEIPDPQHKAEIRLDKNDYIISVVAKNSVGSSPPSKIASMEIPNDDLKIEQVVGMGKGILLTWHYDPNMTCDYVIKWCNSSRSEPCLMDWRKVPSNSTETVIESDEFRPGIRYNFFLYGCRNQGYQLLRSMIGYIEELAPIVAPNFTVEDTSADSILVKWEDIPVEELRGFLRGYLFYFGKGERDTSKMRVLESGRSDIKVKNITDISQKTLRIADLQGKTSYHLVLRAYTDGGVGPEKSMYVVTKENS
T1 sequence (P40189 23-619): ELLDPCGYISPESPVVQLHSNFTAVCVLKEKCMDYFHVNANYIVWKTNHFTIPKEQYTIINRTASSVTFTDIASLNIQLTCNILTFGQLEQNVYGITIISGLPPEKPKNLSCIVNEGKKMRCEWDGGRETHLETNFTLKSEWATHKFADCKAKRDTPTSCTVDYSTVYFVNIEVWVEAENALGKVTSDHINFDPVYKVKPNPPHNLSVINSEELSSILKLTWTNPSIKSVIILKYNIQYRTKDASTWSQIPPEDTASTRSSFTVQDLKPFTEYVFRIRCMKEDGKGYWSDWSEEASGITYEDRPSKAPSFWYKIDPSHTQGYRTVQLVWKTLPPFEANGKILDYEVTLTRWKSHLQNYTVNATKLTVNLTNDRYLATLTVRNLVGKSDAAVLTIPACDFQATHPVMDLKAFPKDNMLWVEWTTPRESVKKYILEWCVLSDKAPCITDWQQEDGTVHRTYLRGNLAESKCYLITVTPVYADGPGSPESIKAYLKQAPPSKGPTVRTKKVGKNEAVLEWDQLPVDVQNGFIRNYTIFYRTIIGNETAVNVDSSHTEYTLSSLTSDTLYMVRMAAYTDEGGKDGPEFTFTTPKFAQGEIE
T1 sequence (P40223 627-837 partner limits assumed): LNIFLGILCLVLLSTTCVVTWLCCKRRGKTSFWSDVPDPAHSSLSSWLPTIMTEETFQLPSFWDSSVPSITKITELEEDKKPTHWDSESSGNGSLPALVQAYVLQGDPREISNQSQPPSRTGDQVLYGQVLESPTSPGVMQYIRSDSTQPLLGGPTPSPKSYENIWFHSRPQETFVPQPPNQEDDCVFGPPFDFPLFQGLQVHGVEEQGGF
Assay: Growth response of chimeric LIF receptor-expressing Ba/F3 cell line LIG (WST-8)
Assay type: cell-based
Conditions: 72 hours culture, WST-8 absorbance
Excerpt: Chimeric receptor DNAs were constructed by linking cDNA fragments encoding human LIF receptor (from the 1st to the 833rd amino acid residues; Gearing, D P. et al. […] EMBO J., 10, 2839-2848) and human gp130 (from the 1st to the 619th amino acid residues; Hibi, M. et al. (1990) Cell, 63, 1149-1157) with the transmembrane and intracellular domains (from the 602nd to the 813th amino acid residues; Fukunaga, R. et al. (1990) Cell 61, 341-350) of mouse G-CSF receptor, respectively. These constructs were inserted downstream of the HEF1α promoter of the mammalian expression vector pCV to construct chimeric receptors expression vectors, pCV-cLIFR and pCV-cgp130, respectively. pCV-cLIFR and pCV-cgp130 were linearized with Pvu I (Takara Shuzo), respectively, extracted with phenol and chloroform, and purified by ethanol precipitation. […]
The cells were washed twice with Media A, and were suspended in Media A to give a cell density of 5×10^4 cells/mL. […] After the culture, 10 μL/well WST-8 reagent (Cell Count Reagent SF; Nacalai Tesque) was added, and pre-reaction absorbance at a measurement wavelength of 450 nm and a control wavelength of 655 nm was measured using microplate reader (Model 3550, Bio Rad). The plate was incubated for two hours in a CO2 incubator (CO2 concentration, 5%), and post-reaction absorbance was measured as above. […]

B1: human CNTF: human ciliary neurotrophic factor (Genzyme) (protein, UniProt P26441 1-200, looked up)
Ciliary neurotrophic factor: MAFTEHSPLTPHRRDLCSRSIWLARKIRSDLTALTESYVKHQGLNKNINLDSADGMPVASTDQWSELTEAERLQENLQAYRTFHVLLARLLEDQQVHFTPTEGDFHQAIHTLLLQVAAFAYQIEELMILLEYKIPRNEADGMPINVGDGGLFEKKLWGLKVLQELSQWTVRSIHDLRFISSHQTGIPARGSHYIANNKKM
- concentration at which an evident growth reaction was observed: > 10 ng/mL

Reference: patent US7732133B2, “Screening methods for biologically active ligands” (Chugai Seiyaku Kabushiki Kaisha, priority 2000, dated 2010)
